Results taken from patent US20100287629A1 (published 2010).

Target: T1, native human CD4 on the cell surface (human, UniProt P01730 26-458)
T1 construct: whole, on cells; also called CD4 on SupT1 cells; CD4 on human PBL/PBMC
Assay: flow cytometry on SupT1 cells; half-maximal fluorescence, four-parameter fit
Protocol: The avidity and affinity determinations described above were performed with recombinant CD4 (rCD4). To determine the avidity of the human monoclonal antibodies for native CD4 (nCD4). […] Specifically, serial dilutions of antibody were incubated with SupT1 cells for 6 hr on ice, washed and detected any bound antibody with FITC-goat anti-human Fcγ.
*Human monoclonal antibodies were incubated in serial dilutions with SupT1 cells for 6 hrs, washed twice and incubated with FITC-conjugated goat anti-human Fcγ antisera, washed and fixed. The Ka was calculated from the concentration of antibody yielding one-half of the maximum fluorescence as determined from a four-parameter fit.

Ka	Binder
1.9e+09 M⁻¹	human IgG kappa anti-CD4 monoclonal antibody 6G5 (antibody, V domains shown, Human IgG1 kappa from hybridoma of an HC2/KCo5/JHD/JCKD mouse; CDR3 VINWFDP (VH4-34, JH5); l.c; also called 6G5.1) VH: QVQLQQWGAGLLKPSETLSLTCAVYGGSFSGYYWSWIRQPPGKGLEWIGEINHSGSTNYNPSLKSRVTISVDTSKNQFSLKLSSVTAADTAVYYCARVINWFDPWGQGTLVTVSS VL: DIQMTQSPSSVSASVGDRVTITCRASQDISSWLAWYQHKPGKAPKLLIYAASSLQSGVPSRFSGSGSGTDFTLTISSLQPEDFATYYCQQANSFPYTFGQGTKLEIK
1.8e+09 M⁻¹	human IgG kappa anti-CD4 monoclonal antibody 10C5 (antibody, V domains shown, Human IgG1 kappa from hybridoma of an HC2/KCo5/JHD/JCKD mouse; CDR3 VINWFDP (VH4-34, JH5); l.c; same primary B cell as 6G5; also called 10C5.6) VH: QVQLQQWGAGLLKPSETLSLTCAVYGGSFSGYYWSWIRQPPGKGLEWIGEINHSGSTNYNPSLKSRVTISVDTSKNQFSLKLSSVTAADTAVYYCARVINWFDPWGQGTLVTVSS VL: DIQMTQSPSSVSASVGDRVTITCRASQDISSWLAWYQHKPGKAPKLLIYAASSLQSGVPSRFSGSGSGTDFTLTISSLQPEDFATYYCQQANSFPYTFGQGTKLEIK
